Source: patent US20080160006A1, “Nutrient Medium for Maintaining Neural Cells in Injured Nervous System” (priority 2001, published 2008)

Test system: human cortical brain cells (neurons vs glia)
Experiment: Adult human cortical brain cells cultured in B27/Neurobasal A, immunostained for neurofilament and GFAP
Format: cell-based
Settings: added in addition to FGF2, sample 4
Excerpt: GENERAL METHODS. Brain tissue was ethically obtained by informed consent from patients before surgery under protocols approved by the Springfield Committee for Research on Human Subjects and the UC Irvine IRB. […] Rather than using aspiration to remove all tissue, slices of tissue 1-3 mm thick were obtained from cortical access ports or tissue that was marginal to the lesion. Use of electrocautery was kept to a minimum to reduce oxyradicals and other neuron damage. […] Hibernate A contains D-glucose, pyruvate, balanced salts, amino acids, and vitamins. B27 contains 5 antioxidants and 15 other components. […] After transport on ice to a laminar flow sterile hood in the culture laboratory, meninges and white matter were removed from the tissue with a scalpel and forceps in a 35 mm dish in 2 ml transport medium. […] The cell suspension was enriched for neurons by centrifugation on a density gradient of Optiprep (Invitrogen). […] The diluted Optiprep was further diluted with transport medium (v/v) to make a gradient containing 4 steps of 1 ml in a 15 ml centrifuge tube: bottom (0.35:0.65), 0.25:0.75, 0.2:0.8, top (0.15:0.85). Up to 6 ml of cell suspension was layered over the Optiprep step gradient. […] Cells were plated at a density of 320/mm^2 onto glass coverslips coated with polylysine as previously described. […]

B1: NT3: trophic factor NT3, recombinant, Regeneron (protein, UniProt P20783 139-257, looked up)
Neurotrophin-3: YAEHKSHRGEYSVCDSESLWVTDKSSAIDIRGHQVTVLGEIKTGNSPVKQYFYETRCKEARPVKNGCRGIDDKHWNSQCKTSQTYVRALTSENNKLVGWRWIRIDTSCVCALSRKIGRT
  survival of neurofilament positive cells versus FGF2 alone: no more efficacious
